One may read the Kd as the free concentration of one partner at which half of the binding sites on the other are occupied at equilibrium, for simple one-to-one binding.

These results are taken from article PMC9095961.

The target in this experiment is fluorescently labelled recombinant HAUSP (UniProt Q93009). In words: other fluorescence titration; BODIPY FL-labelled HAUSP titrated with unlabeled PE_PGRS38; 25°C, 30 mM Tris pH 7.4, 150 mM NaCl, 1 mM dithiothreitol; fitted with Grafit.
Sequence of UniProt Q93009 (Q93009 whole entry): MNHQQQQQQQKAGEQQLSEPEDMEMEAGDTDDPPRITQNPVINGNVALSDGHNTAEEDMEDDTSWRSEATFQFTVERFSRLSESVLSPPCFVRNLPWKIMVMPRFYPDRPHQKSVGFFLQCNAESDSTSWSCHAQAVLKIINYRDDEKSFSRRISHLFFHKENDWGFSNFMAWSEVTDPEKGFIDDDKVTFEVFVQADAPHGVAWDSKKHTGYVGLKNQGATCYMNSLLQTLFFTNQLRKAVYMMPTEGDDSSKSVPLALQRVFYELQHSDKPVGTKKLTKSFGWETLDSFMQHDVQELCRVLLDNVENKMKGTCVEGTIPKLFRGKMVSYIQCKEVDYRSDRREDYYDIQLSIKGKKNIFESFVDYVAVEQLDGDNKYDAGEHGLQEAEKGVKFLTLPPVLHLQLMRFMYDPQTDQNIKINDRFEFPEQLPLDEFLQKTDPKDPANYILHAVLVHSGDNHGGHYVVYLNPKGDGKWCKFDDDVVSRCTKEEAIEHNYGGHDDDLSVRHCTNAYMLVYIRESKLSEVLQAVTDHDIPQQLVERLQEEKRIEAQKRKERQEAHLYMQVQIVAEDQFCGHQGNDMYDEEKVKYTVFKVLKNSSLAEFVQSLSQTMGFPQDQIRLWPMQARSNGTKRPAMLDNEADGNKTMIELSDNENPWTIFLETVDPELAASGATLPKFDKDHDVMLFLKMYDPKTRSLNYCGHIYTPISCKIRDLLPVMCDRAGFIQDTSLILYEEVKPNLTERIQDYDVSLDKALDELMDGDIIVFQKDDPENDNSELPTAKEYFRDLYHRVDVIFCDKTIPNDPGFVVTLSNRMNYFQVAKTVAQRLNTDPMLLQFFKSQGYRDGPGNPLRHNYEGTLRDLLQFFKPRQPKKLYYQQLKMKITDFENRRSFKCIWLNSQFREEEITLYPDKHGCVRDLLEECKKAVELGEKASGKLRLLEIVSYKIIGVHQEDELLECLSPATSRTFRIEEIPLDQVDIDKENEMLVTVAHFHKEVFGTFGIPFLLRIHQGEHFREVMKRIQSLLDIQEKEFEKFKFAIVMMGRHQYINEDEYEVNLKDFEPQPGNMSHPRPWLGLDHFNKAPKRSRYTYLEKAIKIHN

Consider “recombinant PE_PGRS38 (from UniProt L7N6A1 1-532) (natural protein)”, for which the Kd stood at 143 nM.
